Reference: PMC8782923, “A Klotho-derived peptide protects against kidney fibrosis by targeting TGF-β signaling” (Nature Communications, 2022)
“And” between values parts separate entries of the source, which are not always exact repeats. Equal values may be shown once.

Tested on: NRK-49F cells
Test: α-SMA mRNA induced by TGF-β1 in NRK-49F cells (qRT-PCR)
Type: cell-based, rat
Conditions: TGF-β1 2 ng/ml, KP1 or sKlotho 10 µg/ml, individual values, n = 4, Fig. 1b
Method: Normal rat kidney interstitial fibroblasts (NRK-49F) and human proximal tubular epithelial cells (HKC-8) were cultured at 37 °C. NRK-49F cells were serum-starved for 24 h and were pretreated with KP1 (10 µg/ml, 3 µM) for 1 h prior to incubation with TGF-β1 (#240-B; R&D Systems) at 2 ng/ml. Cells were collected at 45 min or 24 h after TGF-β1 treatment, respectively. Whole-cell lysates were prepared and subjected to Western blot analyses. For some experiments, cells were transiently transfected with expression vector human secreted Klotho (sKlotho) that only contains KL1 domain[48], by using Lipofectamine 2000 reagent (Invitrogen, Grand Island, NY) prior to treatment with TGF-β1.
Total RNA was isolated from NRK-49F cells by using a TRIzol RNA isolation system (Invitrogen, Carlsbad, CA). The cDNA was synthesized using 2 µg of RNA in 20 µl of reaction buffer containing AMV-RT (Promega, Madison, WI), random primers, and oligo primers at 42 °C for 60 min. Quantitative, real-time PCR (qRT-PCR) was performed using a Platinum SYBR Green qPCR Super Mix-UDG kit (Invitrogen). The sequences of the primer pairs: F: […]; R: […]. QPCR data were collected by Step one software v2.2.2.

B1: sKlotho: soluble Klotho; expression vector human secreted Klotho contains only KL1 domain (protein)
chain: EPGDGAQTWARFSRPPAPEAAGLFQGTFPDGFLWAVGSAAYQTEGGWQQHGKGASIWDTFTHHPLAPPGDSRNASLPLGAPSPLQPATGDVASDSYNNVFRDTEALRELGVTHYRFSISWARVLPNGSAGVPNREGLRYYRRLLERLRELGVQPVVTLYHWDLPQRLQDAYGGWANRALADHFRDYAELCFRHFGGQVKYWITIDNPYVVAWHGYATGRLAPGIRGSPRLGYLVAHNLLLAHAKVWHLYNTSFRPTQGGQVSIALSSHWINPRRMTDHSIKECQKSLDFVLGWFAKPVFIDGDYPESMKNNLSSILPDFTESEKKFIKGTADFFALCFGPTLSFQLLDPHMKFRQLESPNLRQLLSWIDLEFNHPQIFIVENGWFVSGTTKRDDAKYMYYLKKFIMETLKAIKLDGVDVIGYTAWSLMDGFEWHRGYSIRRGLFYVDFLSQDKMLLPKSSALFYQKLIEKNGFPPLPENQPLEGTFPCDFAWGVVDNYIQVSQLTKPISSLTKPYH
- α-SMA mRNA expression (relative): 10.7876 and 4.655 and 3.074 and 8.483
